# Legend:
# [1] = target: MspA-((Del-L74/G75/D118/L119)D56F/E59R/L88N/D90N/D91N/Q126R/D134R/E139K)8
# [2] = target: MspA-((Del-L74/G75/D118/L119)D56L/E59L/L88N/D90N/D91N/Q126R/D134R/E139K)8
# [3] = target: MspA-((Del-L74/G75/D118/L119)E59Y/L88N/D90N/D91N/Q126R/D134R/E139K)8
# [4] = target: MspA-((Del-L74/G75/D118/L119)D56N/E59T/L88N/D90N/D91N/Q126R/D134R/E139K)8
# [5] = target: MspA-((Del-L74/G75/D118/L119)D56N/E59Q/L88N/D90N/D91N/Q126R/D134R/E139K)8
# [6] = target: MspA-((Del-N79/F80N113N114)D56N/E59R/G75S/G77S/L88N/D90N/D91N/D118R/Q126R/D134R/E139K)8
# [7] = target: MspA-((Del-L74/G75/D118/L119)D56N/E59F/L88N/D90N/D91N/Q126R/D134R/E139K)8
# [8] = target: MspA-((Del-L74/G75/D118/L119)D56N/L88N/D90N/D91N/Q126R/D134R/E139K)8
# [9] = target: MspA-((Del-L74/G75/D118/L119)E59F/L88N/D90N/D91N/Q126R/D134R/E139K)8
# [10] = target: MspA-((Del-L74/G75/D118/L119)D56W/E59R/L88N/D90N/D91N/Q126R/D134R/E139K)8
# [11] = target: MspA-((Del-L74/G75/D118/L119)D56N/E59S/L88N/D90N/D91N/Q126R/D134R/E139K)8
# [12] = target: MspA-(G75S/G77S/L88N/D90N/D91N/D118R/Q126R/D134R/E139K)8
# [13] = target: MspA-((Del-L74/G75/D118/L119)G1A/D56N/E59F/L88N/D90N/D91N/Q126R/D134R/E139K)8
# [14] = target: MspA-((Del-L74/G75/D118/L119)D56N/E59R/L88N/D90N/D91N/Q126R/D134N/E139K)8
protein,measurement,setting,value
T4 Dda-E94C/C109A/C136A/A360C (SEQ ID NO: 24 with mutations E94C/C109A/C136A/A360C) (protein) MTFDDLTEGQKNAFNIVMKAIKEKKHHVTINGPAGTGKTTLTKFIIEALISTGETGIILAAPTHAAKKILSKLSGKEASTIHSILKINPVTYECNVLFEQKEVPDLAKARVLICDEVSMYDRKLFKILLSTIPPWATIIGIGDNKQIRPVDPGENTAYISPFFTHKDFYQCELTEVKRSNAPIIDVATDVRNGKWIYDKVVDGHGVRGFTGDTALRDFMVNYFSIVKSLDDLFENRVMAFTNKSVDKLNSIIRKKIFETDKDFIVGEIIVMQEPLFKTYKIDGKPVSEIIFNNGQLVRIIEAEYTSTFVKARGVPGEYLIRHWDLTVETYGDDEYYREKIKIISSDEELYKFNLFLGKTCETYKNWNKGGKAPWSDFWDAKSQFSKVKALPASTFHKAQGMSVDRAFIYTPCIHYADVELAQQLLYVGVTRGRYDVFYV,Average Signal to Noise (S2N),[1],11.7
same,Mean Current Range,[1],15.6 pA
same,Mean Noise of the Signal,[1],1.33
same,Median Current Range,[1],15.6 pA
same,Median Noise of the Signal,[1],1.28
same,Median S2N,[1],12.3
same,Percentage of complement slipping forwards,[1],0.38%
same,Standard Deviation of S2N,[1],0.59
same,Standard Deviation of the Current Range,[1],1.92 pA
same,Standard Deviation of the Noise of the Signal,[1],0.24
same,slips forward per kilobase,[1],less than 5 slips forward per kilobase
same,slips forward per kilobase,[2],less than 5 slips forward per kilobase
same,Average Signal to Noise (S2N),[3],11
same,Mean Current Range,[3],15 pA
same,Mean Noise of the Signal,[3],1.36
same,Median Current Range,[3],14.9 pA
same,Median Noise of the Signal,[3],1.32
same,Median S2N,[3],11.9
same,Percentage of complement slipping forwards,[3],0.27%
same,Standard Deviation of S2N,[3],1.17
same,Standard Deviation of the Current Range,[3],1.72
same,Standard Deviation of the Noise of the Signal,[3],0.23
same,Average Signal to Noise (S2N),[4],12.3
same,Mean Current Range,[4],16 pA
same,Mean Noise of the Signal,[4],1.31
same,Median Current Range,[4],16.1 pA
same,Median Noise of the Signal,[4],1.26
same,Median S2N,[4],12.6
same,Percentage of complement slipping forwards,[4],0.8%
same,Standard Deviation of S2N,[4],0.87
same,Standard Deviation of the Current Range,[4],1.87 pA
same,Standard Deviation of the Noise of the Signal,[4],0.24
same,Average Signal to Noise (S2N),[5],12.8
same,Mean Current Range,[5],15.6 pA
same,Mean Noise of the Signal,[5],1.22
same,Median Current Range,[5],15.5 pA
same,Median Noise of the Signal,[5],1.16
same,Median S2N,[5],13.3
same,Percentage of complement slipping forwards,[5],0.55%
same,Standard Deviation of S2N,[5],0.86
same,Standard Deviation of the Current Range,[5],1.72 pA
same,Standard Deviation of the Noise of the Signal,[5],0.25
same,Average Signal to Noise (S2N),[6],13.1
same,Mean Current Range,[6],15.8 pA
same,Mean Noise of the Signal,[6],1.21
same,Median Current Range,[6],15.8 pA
same,Median Noise of the Signal,[6],1.13
same,Standard Deviation of the Current Range,[6],1.9 pA
same,Standard Deviation of the Noise of the Signal,[6],0.28
same,Average Signal to Noise (S2N),[7],12.8
same,Mean Current Range,[7],15.8 pA
same,Mean Noise of the Signal,[7],1.24
same,Median Current Range,[7],15.7 pA
same,Median Noise of the Signal,[7],1.17
same,Median S2N,[7],12.8
same,Percentage of complement slipping forwards,[7],0.25%
same,Standard Deviation of S2N,[7],0.12
same,Standard Deviation of the Current Range,[7],1.86 pA
same,Standard Deviation of the Noise of the Signal,[7],0.27
same,Average Signal to Noise (S2N),[8],12.3
same,Mean Current Range,[8],14.7 pA
same,Mean Noise of the Signal,[8],1.2
same,Median Current Range,[8],14.6 pA
same,Median Noise of the Signal,[8],1.17
same,Standard Deviation of the Current Range,[8],1.66 pA
same,Standard Deviation of the Noise of the Signal,[8],0.15
same,Average Signal to Noise (S2N),[9],11.4
same,Mean Current Range,[9],15.7 pA
same,Mean Noise of the Signal,[9],1.37
same,Median Current Range,[9],15.7 pA
same,Median Noise of the Signal,[9],1.33
same,Median S2N,[9],11.8
same,Percentage of complement slipping forwards,[9],0.3%
same,Standard Deviation of S2N,[9],0.64
same,Standard Deviation of the Current Range,[9],1.81 pA
same,Standard Deviation of the Noise of the Signal,[9],0.22
same,Average Signal to Noise (S2N),[10],10.7
same,Mean Current Range,[10],14.4 pA
same,Mean Noise of the Signal,[10],1.35
same,Median Current Range,[10],14.3 pA
same,Median Noise of the Signal,[10],1.28
same,Median S2N,[10],11.9
same,Percentage of complement slipping forwards,[10],0.25%
same,Standard Deviation of S2N,[10],0.33
same,Standard Deviation of the Current Range,[10],1.79
same,Standard Deviation of the Noise of the Signal,[10],0.26
same,Average Signal to Noise (S2N),[11],11.4
same,Mean Current Range,[11],15 pA
same,Mean Noise of the Signal,[11],1.31
same,Median Current Range,[11],14.9 pA
same,Median Noise of the Signal,[11],1.27
same,Median S2N,[11],11.3
same,Percentage of complement slipping forwards,[11],0.43%
same,Standard Deviation of S2N,[11],0.29
same,Standard Deviation of the Current Range,[11],1.7
same,Standard Deviation of the Noise of the Signal,[11],0.23
same,Average Signal to Noise (S2N),[12],11.4
same,Mean Current Range,[12],15.5 pA
same,Mean Noise of the Signal,[12],1.35
same,Median Current Range,[12],15.8 pA
same,Median Noise of the Signal,[12],1.35
same,Standard Deviation of the Current Range,[12],2.23
same,Standard Deviation of the Noise of the Signal,[12],0.14
same,slips forward per kilobase,[13],less than 5 slips forward per kilobase
same,Average Signal to Noise (S2N),[14],12.2
same,Mean Current Range,[14],16 pA
same,Mean Noise of the Signal,[14],1.31
same,Median Current Range,[14],16.1 pA
same,Median Noise of the Signal,[14],1.27
same,Median S2N,[14],12
same,Percentage of complement slipping forwards,[14],0.65%
same,Standard Deviation of S2N,[14],0.57
same,Standard Deviation of the Current Range,[14],1.93 pA
same,Standard Deviation of the Noise of the Signal,[14],0.21
